Experimental data reported in publication PMC4191985.

Target: BamA^Eco (Escherichia coli) (UniProt P0A940)
Assay: flow cytometry on cells
Conditions: remark: other sources report otherwise

For CdiA^EC93, Q3YL96 33-3132, the percent of target cells bound to inhibitor cells was 73%.
